Paper PMC2787660
Blank lines part the entries; values can stand above or below the substance they belong to.

Columns and labels:
Assay in all cases: cross-linking
[1] = biological target: apoA-I E198K (human)
[2] = biological target: apoA-I L(42,44)D (human)
[3] = biological target: apoA-I L(46,47)D (human)

stoichiometry N [1]: 2
Substance: apoA-I E198K (natural protein)

stoichiometry N [2]: 2
Substance: apoA-I L(42,44)D (natural protein)

stoichiometry N [3]: 2
Substance: apoA-I L(46,47)D (natural protein)
